Our source for the Kd, koff and kon values is CN116440263A (SHANGHAI JUNSHI BIOSCIENCES CO LTD; JUNMENG BIOSCIENCES CO …, dated 2023).

The target in this experiment is T1, His标签的重组人CTLA-4抗原蛋白 (human, UniProt P16410 36-161, limits assumed).
T1 construct: Made in-house (君盟自制); also called 重组人CTLA-4蛋白; 人CTLA-4蛋白; not shown: His tag
T1 sequence (looked up): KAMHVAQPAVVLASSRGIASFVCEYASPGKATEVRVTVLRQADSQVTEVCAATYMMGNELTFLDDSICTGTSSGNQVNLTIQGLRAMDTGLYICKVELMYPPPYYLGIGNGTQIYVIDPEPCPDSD
The experiment in a line: SPR (Biacore T200): antibody captured on goat anti-human Fc CM5 chip, His-tagged CTLA-4 0.75-24 nM as analyte, kinetic fit.

B1: huJS007-47 (antibody, V domains shown)
VH: QVQLQESGPGLVKPSQTLSLTCTVSAYSITSGYYWNWIRQHPGKGLEWIGYIGYDGSNNYNPSLKSRVTISRDTSKNQFSLKLSSVTAADTAVYYCARDYYSGYFDSWGQGTTLTVSS
VL: DIQMTQSPSSLSASVGDRVTITCRASQNVGTYVAWYQQKPGKVPKPLIYSTSYRYSGVPSRFSGSGSGTDFTLTISSLQPEDVATYFCHQYDTYPLTFGAGTKLELKR
Take B1: the Kd (commonly the equilibrium constant for the complex coming apart) is 206 pM; the koff (usually a measure of how fast the partners let go of each other) is 0.000169 s⁻¹; the kon (in general, a measure of how fast the partners come together) was 818000 M⁻¹ s⁻¹.
